Literature values, collected in patent US9782344B2, “Stable glucagon peptide formulations” (ZP Opco, Inc., priority 2013, dated 2017).
Read-outs that look alike come from different tables or passages of the source.

glucagon
behaviour in aqueous solution (pH below 3 or above 9): readily dissolved | behaviour in aqueous solution (pH between 4 and 8): precipitates readily
